Assay results published in the supplement of paper PMC9170038.

Test system: MS2 coat protein
Assay: apparent KD of MS2 coat protein; designed switch direction (-1 OFF switch, 1 ON switch): -1; higher = weaker reporter binding
Method in brief: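 Designed RNA switches with common flanks were made on Illumina chips by stalled E. coli RNA polymerase. Titration with SNAP-549-labelled MS2 coat protein doubled from 0.7 or 1.5 nM up to 3 µM. Apparent KD is each design's median over clusters after curve-fitting normalised fluorescence.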

[1] = Eterna round: R95, input ligand: FMN 200 uM
[2] = Eterna round: R95, input ligand: microRNA oligo, concentration not stated
[3] = Eterna round: R95, input ligand: none
[4] = input ligand: microRNA oligo, concentration not stated

Sequence	apparent KD of MS2 coat protein [1] [nM]	apparent KD of MS2 coat protein [2] [nM]	apparent KD of MS2 coat protein [3] [nM]	apparent KD of MS2 coat protein (input ligand: FMN 200 uM) [nM]	apparent KD of MS2 coat protein (input ligand: none) [nM]	apparent KD of MS2 coat protein [4] [nM]
UUAUACGUUGAGGAUAUGCGAUUUAGUAUAGUUGCAGAAGGCGAUACAUGAGGAUCACCCAUGUUUAUGGGCAU [LRO-Ex6-07] (puzzle: Exclusion 6)	394	269	259			
GCAGAAUGAGUUAGGAUAUGAUGAUUUUUCGGAAAUCAGAAGGAACUUGAGGAUCACCCAAGUAAAGAUAGGGU [JR_BMEx4_Sub064] (Eterna round: R97, puzzle: Brourd's mod of Exclusion 4)				358	236	
GACCUCACGGUCAGGAUAUCAGAACGGAAUGCGCAUGAGAAGGGACAUGAGGAUCACCCAUGUGGGCUCGUCGC [Eddionce] (puzzle: Brourd's mod of Exclusion 4)	21.6	13.9	17.9			
CCAUGGGUGCGAGGAUAUAGCCCAUGGGAAGAGCUAGAAGGCGCAGACAUGAGGAUCACCCAUGUGUUCAUGAGGAGGUGGACA (Eterna round: R96, puzzle: Exclusion NG 1)				124	84.8	54.8
GUGUAGACAGGAUAUGCUUUGAGCAUAUGAGAGUAUGCUCGACAUGAGGAUCACCCAUGUAGAAGGGUCUACAC [LRO-Excl2-02] (puzzle: Exclusion 2)		12.9				
AGACCGAUAGCAGGAUAUAGGACGACGAGAGCGCUAGAAGGGCUGACGACAUGAGGAUCACCCAUGUUUUCGUCUCAACAGGCA [Eternabot solution 22] (Eterna round: R96, puzzle: Exclusion NG 1)				31	29.2	23.1
CAGUACUGAGGAUAUACAUGAGGAUCACCCAUGUCUUAAAAGUAGGAUACUACUAUUAGUAGAAGGCAGUACUG [Fiskers Ex 3 828 mod 24] (puzzle: Exclusion 3)		12.6				
ACGUGAUAUCUGUCGUUGGACAUGAGGAUCACCCAUGUAAGCUUUUUGCUCGUCUUAUAACCCGGUGACAGACCUUC [Dienlave] (puzzle: Sensor v3, turn-off variant 1)	24.7	236	23.9			
UUCCUCACUUCUUUGUCUCACAUGAGGAUCACCCAUGUAAUAUAGGAUAUGCAUAGUAUUUCUAUGCAGAAGGAUAUUAGUUUU [JR_ExcNG3_Sub087] (Eterna round: R96, puzzle: Exclusion NG 3)				131	34.7	27.3
AUUAAACAUGUAGGAUAUGCGUAGCAAAGCUAUGCAGAAGGACAUGAGGAUCACCCAUGUAAAAGCGUCUGAGUACAGAUGCAA [Mat - Exclusion NG 1 - Mod of JL - D88] (Eterna round: R96, puzzle: Exclusion NG 1)				936	47.6	40.5
CUGAGGUAGCGGUCCUAUGACAUGAGGAUCACCCAUGUACCUUGCUUUGAGCAUUUUGCUCGUCUUAUGAUUCUCGG [Mat - Sensor v3 - turn-off var 1 - JL Mod - D39] (puzzle: Sensor v3, turn-off variant 1)	371	474	427			
GGUCAGAUGGUAGGAUAUCCAUAUCGAGUGACCCUUUCAUAACAUGAGGAUCACCCAUGUCGGUGGGAGAAGGGCUGUACGGCG [salish99_ExNG02_R04_021] (Eterna round: R96, puzzle: Exclusion NG 2)				34.8	43.3	19.1
CACAAGCUUUUUUGUUGCUUUUUAGUUGGUGUGUGAUUUACAUGAGGAUCACCCAUGUUAUUGAUGCUCGAUCUUUU [JR_SV3TOV2_Sub082] (puzzle: Sensor v3, turn-off variant 2)	71.1	143	97.3			
CUAAGUUGGUAAGGAUAUCCUACAUUAUUCUGACCCGUGCAAGCUACAUGAGGAUCACCCAUGUGGGAGAAGGUGCGUUAAUGU [Design 5] (Eterna round: R96, puzzle: Exclusion NG 2)				16.3	20.3	13.8
UUUUCAUAUGAAGGAUAUACUUAACAUGAGGAUCACCCAUGUGGUGUUGUGAGUGAGUGAGUUUAGUAGAAGGUCAAUUCUUUU [JMF's solution 90] (Eterna round: R96, puzzle: Exclusion NG 2)				613	351	277
UCAUGGUAGCAGGAUAUGCUUGUUUAAUUUUUUGCAGAAGGGCUAACAUGAGGAUCACCCAUGUGAGAGGUCUA [JR_E6_Sub065] (puzzle: Exclusion 6)	31	64.3	144			
UUUAUGUCAGGAUAUGAGUAGUAGAACAAUAGUACUACUACUCAGAAGGGACAUGAGGAUCACCCAUGUUCCUC [Fiskers Ex 4 Super stable 44 mod 20] (puzzle: Exclusion 4)		16.7				

Sequence	apparent KD of MS2 coat protein [1] [nM]	apparent KD of MS2 coat protein [2] [nM]	apparent KD of MS2 coat protein [3] [nM]	apparent KD of MS2 coat protein (input ligand: FMN 200 uM) [nM]	apparent KD of MS2 coat protein (input ligand: none) [nM]	apparent KD of MS2 coat protein [4] [nM]
AUACCACGAGGAUAUCGUCUCUCCCACAUGAGGAUCACCCAUGUUAUCCAUGUUUCGUUUCGAGAAGGCGUGGGUU [JR_E5_Sub072] (puzzle: Exclusion 5)		58.7				
AAGUACCGUCACGAUAGUGAUGGUACAACAAGCAAAUGUACAUGAGGAUCACCCAUGUCCUCUUUUGCUCGUCUUGU [Sensor 3 - 100] (puzzle: Sensor v3, turn-off variant 2)	155	30.2				
AUCGUGUGAGGAUAUCGAUUAUGGAGGUCUAGGUCCAUACGCGAGAAGGCACAUGAGGAUCACCCAUGUAAUGG [jl-ex4-4.31 ViennaUCT mod] (Eterna round: R97, puzzle: Exclusion 4)				126	309	
UUUCGGCAUGUAGGAUAUGGAUCCGAUUAGGAUUUAGAAGGACAUGAGGAUCACCCAUGUGCAUUUAAUUGGUCAUUACCGUUU [EXclNG1-LROPPY08] (Eterna round: R96, puzzle: Exclusion NG 1)						41.9
AAACGGGUGUCCUCGUUUUCAACAUGAGGAUCACCCAUGUUCGAGGAUAUCCGAUAAGCUCUUCAGGAGAAGGCGAACAUAAAA [Eninenat] (Eterna round: R96, puzzle: Exclusion NG 3)				14.7	18.4	32.1
CCACAUGCAGGAUAUGUAAAAUUUGACAUGAGGAUCACCCAUGUAGAUCCUGAAUUUCCUGCAGAAGGGCAUGUGG [Mat - Exclusion 5 - Eli Mod - D19] (Eterna round: R97, puzzle: Exclusion 5)				605	149	
AUCAUGUGAGGAUAUGUGAUCAACCUUCUGUAUAGAUGAUUACAGAAGGCACAUGAGGAUCACCCAUGUAGAUC [Ex4 - 3 - 21] (puzzle: Exclusion 4)		55.7				
UAAAAGUGAGGAUAUACAUUAAGGUAAGUCCGGAUGCGAAGACAUGAGGAUCACCCAUGUAGAAGGCACACAAA [Aredge] (puzzle: Exclusion 2)		32.1				
GAAAAGUGAGGAUAUUGUUUUUUUUUGAAAACGGGAGAGGGCAAGAAGGCACAUGAGGAUCACCCAUGUAAGGU [Alacar 2] (Eterna round: R97, puzzle: Exclusion 4)				66.4	44.1	
AGAUUGUUAGGAUAUUCGGACCGCUACGAAGCGUGGUCCAGGGAGAAGGAACAUGAGGAUCACCCAUGUGACCA [Eternabot (L2) Solution 33] (Eterna round: R97, puzzle: Exclusion 4)				69.7	26	
CAUACUCAAGUCAGGAUAUAGACUCGGAUACGGAUCUAGAAGGGACAUGAGGAUCACCCAUGUAGAGAGUAAAG [EX-4 Malc #26] (puzzle: Brourd's mod of Exclusion 4)	60.9	28.1	25			
GGAUCACAUGUUAGGAUAUGCUGGUCCUUGGAUCAGCAGAAGGGACAUGAGGAUCACCCAUGUCAUGAAGAUCC [Eli bmx4 4.81] (Eterna round: R97, puzzle: Brourd's mod of Exclusion 4)				52.8	24.1	
UGUUGUCGCGUAGGAUAUGGCCAACAGGCCCUAGGAUAUGCGAAAGCAGAAGGAGCGCCAACAGGCGAGAAGGACGGGACAACU [pwkr exNG2 2xF7 2xFMN.17] (Eterna round: R96, puzzle: Exclusion NG 2)				20.6	359	13.6
AGUACUAACACGAGUGUGUUAGUACAAUAAGCUUGUGAAACAUGAGGAUCACCCAUGUCCUCAUAAGCUCGUCUUAU [salish99_TOv2_r3_073] (puzzle: Sensor v3, turn-off variant 2)	17.8	516	15.1			
UUUUUUGGGCAAGGAUAUCCUGUGCGGUUCCGGCUCGUGUCUGUUACAUGAGGAUCACCCAUGUGGGAGAAGGUGCCUGCGGUU [Design 85] (Eterna round: R96, puzzle: Exclusion NG 2)				172	34.9	31.1
UAUUAGCAAGCGAGUGGGUACAUGAGGAUCACCCAUGUGCUCGUCUUAUAAGGUACUGUGACGAAAGUCACGGUACC [Eli 91 v33] (Eterna round: R97, puzzle: Sensor, turn-off variant 1)				16.1	13.4	
GAAUUAGUAGGAUAUACAUGAGGAUCACCCAUGUCUCAAACCAUGUACAGGAGAGGCUGUAGAAGGACUGAACA [Eternabot (Original) Solution 19] (Eterna round: R97, puzzle: Exclusion 3)				36	31.7	
